Assay results: patent US7524668 (ELAN PHARMACEUTICALS, dated 2009)
Non-standard residues stand in square brackets, D forms with d. No end group written: not given here. Sta = CC(C)C[C@H](N)[C@@H](O)CC(=O)O

Assays:
[1] = biological target: T1, pQE70-Met-Arg-Gly-Ser-Phe-Val-Glu-...Thr-Asp-Glu-Ser-Arg-Ser-(His)6 E. coli expressed recombinant human BACE (human, UniProt P56817 57-453); assay: affinity chromatography on peptide-coupled resin, bound at acidic pH, eluted at pH 8.5
T1 construct: C-terminal His6 tag is part of the construct; also called pQE70-BACE
Experimental: Prior to purification, the pH of the refolded protein was lowered from about 10 to 8.5 with HCl. The solution was loaded onto three 50 ml Q-Sepharose columns (Pharmacia Biotech XK 50). The columns were pre-equilibrated in 0.4 M Urea, 10 mM AMPSO, pH 8.5. After refolded protein was loaded onto the columns, they were washed with 500 ml of 0.4 M Urea, 10 mM TRIS, pH 8.2. The columns were eluted with 180-245 ml of 0.75 M NaCl in 0.4 M Urea 10 mM TRIS buffer, pH 8.2. The eluates were then dialyzed versus 20 mM HEPES, pH 8.0. The samples were then removed from dialysis and dropped into 1 M NaMES, pH 5.7 (0.1 M final concentration). After centrifugation (20 Kxg) the supernatant was dropped into 1 M Na-acetate, 1 M NaMES, pH 5.0 (0.2 M Na-acetate, 0.28 M Na-MES was the final concentration). […] This solution was then applied to a 15 ml affinity column equilibrated at the same pH. The column was washed with 6 column volumes of 20 mM sodium acetate buffer pH 4.5, 150 mM NaCl. BACE was eluted at pH 8.5 using about 50 ml of 0.1 M borate buffer. […] Purified pQE70-BACE was dialyzed into 100 mM NaBorate pH 8.5.

[2] = biological target: T2, pQE80L-Met-Arg-Gly-Ser-(His)6-Gly-Ser-Ile-Glu-Thr-Asp-(TQH...QTDES) E. coli expressed recombinant human BACE (human, UniProt P56817 22-453); assay: affinity chromatography on peptide-coupled resin, bound at pH 4.5, eluted at pH 8.5
T2 construct: N-terminal His6 tag is part of the construct; also called pQE80L-BACE; pQE-80-BACE

[3] = biological target: T3, pET11a-T7.Tag-Gly-Ser-Met-(A-GV...QTDES) E. coli expressed recombinant human BACE (human, UniProt P56817 14-453); assay: as above
T3 construct: The construct carries an N-terminal T7 tag; also called pET11a-BACE; beta secretase

[4] = biological target: T4, CHO cell expressed recombinant human beta secretase proteolytically cleaved with HIV protease (human, UniProt P56817 61-453); assay: affinity chromatography on peptide-coupled resin
T4 construct: N-terminus at V40 after cleavage of the F39-V40 bond; also called HIV-1 protease treated beta secretase; HIV protease treated CHO produced beta secretase

Measured: binding result

T1 sequence (P56817 other isoform, or with tags, fused parts or gaps limits assumed): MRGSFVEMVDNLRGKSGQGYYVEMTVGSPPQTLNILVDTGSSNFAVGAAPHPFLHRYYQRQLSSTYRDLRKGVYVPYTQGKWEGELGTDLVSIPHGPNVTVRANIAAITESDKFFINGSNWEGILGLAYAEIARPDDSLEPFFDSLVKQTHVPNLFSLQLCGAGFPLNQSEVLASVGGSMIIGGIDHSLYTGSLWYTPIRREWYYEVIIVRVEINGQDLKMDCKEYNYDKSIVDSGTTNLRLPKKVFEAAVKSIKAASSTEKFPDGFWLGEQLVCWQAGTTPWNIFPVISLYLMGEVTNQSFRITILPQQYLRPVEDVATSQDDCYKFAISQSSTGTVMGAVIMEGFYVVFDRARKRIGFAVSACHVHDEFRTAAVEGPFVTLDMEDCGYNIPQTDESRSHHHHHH
T2 sequence (P56817 other isoform, or with tags, fused parts or gaps limits assumed): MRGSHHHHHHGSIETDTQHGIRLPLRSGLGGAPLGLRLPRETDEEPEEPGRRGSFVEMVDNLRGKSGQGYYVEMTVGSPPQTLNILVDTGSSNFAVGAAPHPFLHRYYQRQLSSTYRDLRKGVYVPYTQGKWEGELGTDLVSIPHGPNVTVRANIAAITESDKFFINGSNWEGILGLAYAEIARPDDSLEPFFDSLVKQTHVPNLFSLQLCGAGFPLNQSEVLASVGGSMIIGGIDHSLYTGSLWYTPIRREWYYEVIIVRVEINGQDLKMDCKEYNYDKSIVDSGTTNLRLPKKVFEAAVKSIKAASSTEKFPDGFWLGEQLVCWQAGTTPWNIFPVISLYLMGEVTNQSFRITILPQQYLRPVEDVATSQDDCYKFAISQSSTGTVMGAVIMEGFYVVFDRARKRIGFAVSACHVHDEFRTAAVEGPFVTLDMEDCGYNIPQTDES
T3 sequence (P56817 other isoform, or with tags, fused parts or gaps limits assumed): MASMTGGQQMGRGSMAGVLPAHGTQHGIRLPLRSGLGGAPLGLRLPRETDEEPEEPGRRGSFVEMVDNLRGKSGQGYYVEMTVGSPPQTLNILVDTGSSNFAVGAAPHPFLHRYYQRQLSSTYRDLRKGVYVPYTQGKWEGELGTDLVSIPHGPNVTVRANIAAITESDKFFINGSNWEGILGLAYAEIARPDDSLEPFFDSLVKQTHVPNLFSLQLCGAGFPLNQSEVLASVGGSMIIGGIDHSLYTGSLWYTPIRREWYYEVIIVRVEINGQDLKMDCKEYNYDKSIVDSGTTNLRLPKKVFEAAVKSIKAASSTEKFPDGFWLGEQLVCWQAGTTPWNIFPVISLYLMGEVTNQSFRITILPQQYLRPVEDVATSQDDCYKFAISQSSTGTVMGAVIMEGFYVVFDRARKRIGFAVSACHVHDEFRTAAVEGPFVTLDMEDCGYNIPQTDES
T4 sequence (P56817 other isoform, or with tags, fused parts or gaps limits assumed): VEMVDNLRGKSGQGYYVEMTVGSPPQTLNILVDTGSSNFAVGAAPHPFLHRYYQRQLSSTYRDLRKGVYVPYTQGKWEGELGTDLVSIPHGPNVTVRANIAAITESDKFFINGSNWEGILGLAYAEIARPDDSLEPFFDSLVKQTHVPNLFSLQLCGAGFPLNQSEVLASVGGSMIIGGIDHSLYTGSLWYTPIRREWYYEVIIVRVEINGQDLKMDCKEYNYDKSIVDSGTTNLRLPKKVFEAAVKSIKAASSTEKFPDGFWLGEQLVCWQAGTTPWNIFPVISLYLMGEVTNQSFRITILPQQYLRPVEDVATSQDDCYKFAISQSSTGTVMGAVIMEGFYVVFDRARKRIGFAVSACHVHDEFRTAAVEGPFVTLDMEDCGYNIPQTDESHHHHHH

SEVN[Sta]VAEFRGGC (also: coupled to Sulfolink resin via Cys) [synthetic peptide Ser-Glu-Val-Asn-Sta-Val-Ala-Glu-Phe-Arg-Gly-Gly-Cys (where Sta=statine)]
binds: all assays above
